Results taken from publication PMC12319226 (Frontiers in Bioinformatics, 2025).

T1: fHbp m001768 (Neisseria meningitidis, engineered fHbp …, point mutant)
T1 chain: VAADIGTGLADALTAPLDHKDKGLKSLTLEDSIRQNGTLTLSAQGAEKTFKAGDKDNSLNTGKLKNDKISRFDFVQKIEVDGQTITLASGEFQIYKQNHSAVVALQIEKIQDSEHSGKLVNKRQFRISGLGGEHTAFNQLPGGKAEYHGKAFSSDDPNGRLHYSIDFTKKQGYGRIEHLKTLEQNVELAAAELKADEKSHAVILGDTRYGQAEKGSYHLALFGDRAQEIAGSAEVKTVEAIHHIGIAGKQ

T2: fHbp m001847 (Neisseria meningitidis, engineered fHbp …, chimera)
T2 chain: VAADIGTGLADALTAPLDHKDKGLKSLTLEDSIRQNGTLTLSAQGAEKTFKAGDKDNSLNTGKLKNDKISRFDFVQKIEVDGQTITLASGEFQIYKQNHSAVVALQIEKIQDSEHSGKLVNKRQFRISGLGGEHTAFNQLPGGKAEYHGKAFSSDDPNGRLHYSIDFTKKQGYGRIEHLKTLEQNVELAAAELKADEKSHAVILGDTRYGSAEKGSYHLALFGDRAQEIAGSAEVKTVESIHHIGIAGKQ

T3: fHbp m002404 (Neisseria meningitidis fHbp v3.28, …, chimera)
T3 chain: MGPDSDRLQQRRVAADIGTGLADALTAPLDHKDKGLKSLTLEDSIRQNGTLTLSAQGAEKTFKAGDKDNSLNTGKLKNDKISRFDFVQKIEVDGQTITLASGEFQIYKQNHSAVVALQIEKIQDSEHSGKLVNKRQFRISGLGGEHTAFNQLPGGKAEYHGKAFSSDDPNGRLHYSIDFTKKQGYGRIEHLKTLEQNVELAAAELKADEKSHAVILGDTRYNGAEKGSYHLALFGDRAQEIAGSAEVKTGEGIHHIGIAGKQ

T4: fHbp m002414 (Neisseria meningitidis fHbp v3.28, …, chimera)
T4 chain: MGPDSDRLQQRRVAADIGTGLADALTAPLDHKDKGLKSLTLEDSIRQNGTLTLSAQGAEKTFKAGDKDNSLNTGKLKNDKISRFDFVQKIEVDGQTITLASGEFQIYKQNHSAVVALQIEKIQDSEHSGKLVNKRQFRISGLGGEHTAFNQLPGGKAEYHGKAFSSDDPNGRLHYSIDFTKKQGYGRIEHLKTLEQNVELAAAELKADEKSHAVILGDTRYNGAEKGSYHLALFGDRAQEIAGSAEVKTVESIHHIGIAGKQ

T5: fHbp m002417 (Neisseria meningitidis fHbp v3.28, …, chimera)
T5 chain: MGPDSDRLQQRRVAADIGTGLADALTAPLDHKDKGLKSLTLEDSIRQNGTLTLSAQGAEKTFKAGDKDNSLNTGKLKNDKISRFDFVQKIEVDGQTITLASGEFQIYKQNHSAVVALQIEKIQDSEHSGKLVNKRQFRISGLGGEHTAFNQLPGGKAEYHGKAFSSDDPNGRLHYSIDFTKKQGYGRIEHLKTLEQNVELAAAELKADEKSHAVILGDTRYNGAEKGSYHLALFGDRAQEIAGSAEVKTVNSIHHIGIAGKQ

T6: fHbp m001037 (Neisseria meningitidis fHbp v3.28, …, point mutant)
T6 chain: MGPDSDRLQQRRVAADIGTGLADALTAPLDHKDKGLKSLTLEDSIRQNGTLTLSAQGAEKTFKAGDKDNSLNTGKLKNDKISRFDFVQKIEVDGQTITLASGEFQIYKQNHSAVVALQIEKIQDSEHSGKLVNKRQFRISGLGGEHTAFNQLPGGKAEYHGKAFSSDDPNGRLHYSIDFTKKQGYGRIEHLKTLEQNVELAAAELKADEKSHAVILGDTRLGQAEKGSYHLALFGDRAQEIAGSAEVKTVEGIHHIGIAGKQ

T7: fHbp m001040 (Neisseria meningitidis fHbp v3.28-based …, point mutant)
T7 chain: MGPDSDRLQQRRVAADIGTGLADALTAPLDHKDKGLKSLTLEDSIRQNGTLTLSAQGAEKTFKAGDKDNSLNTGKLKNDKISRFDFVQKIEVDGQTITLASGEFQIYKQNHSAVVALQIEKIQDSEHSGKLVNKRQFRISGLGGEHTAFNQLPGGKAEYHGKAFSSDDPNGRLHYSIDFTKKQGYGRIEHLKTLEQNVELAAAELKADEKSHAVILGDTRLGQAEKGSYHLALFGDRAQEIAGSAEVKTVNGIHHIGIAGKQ

T8: fHbp m001531 (Neisseria meningitidis, fHbp …, point mutant)
T8 chain: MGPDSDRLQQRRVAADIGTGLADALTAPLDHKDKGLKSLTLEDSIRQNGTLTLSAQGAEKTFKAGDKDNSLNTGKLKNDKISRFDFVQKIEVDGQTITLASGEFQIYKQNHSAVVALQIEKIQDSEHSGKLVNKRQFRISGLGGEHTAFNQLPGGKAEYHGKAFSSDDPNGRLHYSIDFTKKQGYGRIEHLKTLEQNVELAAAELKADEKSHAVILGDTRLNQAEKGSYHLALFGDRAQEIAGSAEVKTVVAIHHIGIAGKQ

T9: fHbp m001661 (Neisseria meningitidis, fHbp …, point mutant)
T9 chain: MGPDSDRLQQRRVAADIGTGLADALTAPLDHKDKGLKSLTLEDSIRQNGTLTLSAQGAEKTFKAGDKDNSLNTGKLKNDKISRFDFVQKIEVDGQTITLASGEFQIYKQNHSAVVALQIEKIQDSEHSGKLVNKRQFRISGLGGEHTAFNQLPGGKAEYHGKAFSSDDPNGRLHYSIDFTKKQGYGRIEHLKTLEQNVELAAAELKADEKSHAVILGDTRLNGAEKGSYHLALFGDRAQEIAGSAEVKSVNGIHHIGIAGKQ


How the values were obtained:
Assay in all cases: BLI
Details in all cases: both partners purified
fHbp m001768 = target: T1, fHbp m001768
fHbp m001847 = target: T2, fHbp m001847
fHbp m002404 = target: T3, fHbp m002404
fHbp m002414 = target: T4, fHbp m002414
fHbp m002417 = target: T5, fHbp m002417
fHbp m001037 = target: T6, fHbp m001037
fHbp m001040 = target: T7, fHbp m001040
fHbp m001531 = target: T8, fHbp m001531
fHbp m001661 = target: T9, fHbp m001661

| Binder | Kd (fHbp m001768) [nM] | koff (fHbp m001768) [s⁻¹] | kon (fHbp m001768) [M⁻¹ s⁻¹] | Kd (fHbp m001847) [nM] | koff (fHbp m001847) [s⁻¹] | kon (fHbp m001847) [M⁻¹ s⁻¹] | Kd (fHbp m002404) [nM] | koff (fHbp m002404) [s⁻¹] | kon (fHbp m002404) [M⁻¹ s⁻¹] | Kd (fHbp m002414) [nM] | koff (fHbp m002414) [s⁻¹] | kon (fHbp m002414) [M⁻¹ s⁻¹] | Kd (fHbp m002417) [nM] | koff (fHbp m002417) [s⁻¹] | kon (fHbp m002417) [M⁻¹ s⁻¹] | Kd (fHbp m001037) [nM] | koff (fHbp m001037) [s⁻¹] | kon (fHbp m001037) [M⁻¹ s⁻¹] | Kd (fHbp m001040) [nM] | koff (fHbp m001040) [s⁻¹] | other results |
| --- | --- | --- | --- | --- | --- | --- | --- | --- | --- | --- | --- | --- | --- | --- | --- | --- | --- | --- | --- | --- | --- |
| mAb 1E6 (human) (antibody, V domains shown, source: Expi293, purified (MabSelect SuRe, SEC); copies: 2 + 2) VH: EVQLVQSGAEVKKPGSSVKVSCKASGGTVIDYPITWVRQAPGQGLEWVGGFVPLFRTSNYGQKFQGRVTITADKSTSTASMELNSLTSEDTAIYYCARGDTAMGPFDYWGQGTLVTVSS VL: SYVLTQPPSLSVAPGKTATLTCGGNNIAGKTVHWYQQRPGQAPVLVISYDSDRPSGIPERFSGSNSANTATLTISRVEAGDEADYYCQVWDRNSDHWVFGGGTKLTVL | 0.538 | 0.000175 | 325000 ± 2320 | 0.348 | 0.000123 | 353300 ± 2150 | 0.429 | 0.000144 | 336700 ± 1540 | 1.09 | 0.000223 | 205200 ± 950 | 0.502 | 0.000179 | 356800 ± 1380 | 0.349 | 0.000144 | 413700 ± 3870 | 0.594 | 0.000266 | kon (fHbp m001040): 447100 ± 3340 M⁻¹ s⁻¹; Kd (fHbp m001531): 0.546 nM; koff (fHbp m001531): 0.0002 s⁻¹; kon (fHbp m001531): 367300 ± 1990 M⁻¹ s⁻¹; Kd (fHbp m001661): 0.678 nM; koff (fHbp m001661): 0.000193 s⁻¹; kon (fHbp m001661): 285300 ± 2180 M⁻¹ s⁻¹ |
| chimeric antibody h12C1 (antibody, V domains shown, also called humanized 12C1; source: Expi293, purified (MabSelect SuRe, SEC); copies: 2 + 2) VH: QVQLQESGPELVKPGASVKISCKASGYSFSDYNMSWVKQSNGKSLEWIGIIDPKYGTINYNQKFKGKATLTVDQASSTAYMQLNSLTSEDSAVYYCVRDYYGSSYFDYWGQGTTLTVSS VL: DIVLTQSPSSIYASLGERVTLTCKASQDIHNYLNWFQQKPGKSPKTLIYRANRLVDGVPSRFSGGGSGQDYSLTISSLEFEDIGIYYCLQYDEFPPTFGGGTRLEIK | 5.51 | 0.000453 | 82200 ± 1160 | 108 | 0.00885 ± 0.000103 | 81800 ± 5640 | 125 | 0.01534 ± 0.000107 | 123000 ± 5460 | 66.4 | 0.00858 | 129000 ± 5630 | 95.7 | 0.00962 | 101000 ± 1890 | 0.893 | 0.000269 | 300900 ± 2650 | 0.523 | 0.000192 | kon (fHbp m001040): 368300 ± 1820 M⁻¹ s⁻¹; Kd (fHbp m001531): 0.717 nM; koff (fHbp m001531): 0.00022 s⁻¹; kon (fHbp m001531): 307400 ± 2940 M⁻¹ s⁻¹; Kd (fHbp m001661): 167 nM; koff (fHbp m001661): 0.0207 ± 0.000141 s⁻¹; kon (fHbp m001661): 124000 ± 4490 M⁻¹ s⁻¹ |
